Laboratory results as given in the nanobody polyreactivity screen of Harvey et al. (2022).

Test: yeast display, Sf9 membrane polyspecificity reagent, FACS + sequencing; frameworks hold sequencing errors
Summary of the method: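 Galactose-induced (36–48 hours) yeast carrying a synthetic nanobody display library were exposed to 10% biotinylated, detergent-solubilized Sf9 membrane reagent at 4 °C for 1 hour. FACS followed streptavidin microbead enrichment, using low and high (top ~1%) gates for expression (anti-HA) and reagent binding (streptavidin). Colony PCR, MiSeq 2 × 250 sequencing and CDR-length filtering followed. Labels for polyreactivity reflect the gate of origin.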

Row | Sequence | polyreactivity (PSR sort gate)
1 | QVQLVESGGGLVQAGGSLRLSCAASGFTLAGYDMGWYRQAPGKERELVATISTYADSVKGRFTISRDNAKNTVYLQMNSLKPEDTAVYDCAKKYVWTHNYWGQGTQVTVSS | low polyreactivity
2 | QVQLVESGGGLVQAGGSLRLSCAASGSTFSYNAMGWYRQAPGKERELVAAISRGGITNYADSVKGRFTISRDNAKNTVYLQMNSLKPEDTAVYYCNAGYLGGPSYEYWGQGTLVTVSS | low polyreactivity
3 | QVQLVESGGGLVQAGGSLRLSCAASGRIFVVNAMGWYRQAPGKERELVAAISSSSDSTYYADSVKGRFTISRDNAKNTVYLQMNSLKPEDTAVFYCAADYHYDGYWIYDYWGQGTQVTVSS | high polyreactivity
4 | QVQLVESGGGLVQAGGRLRLSCAASGSIFTYNAMGWYIQAPGKERELVAAISASGGRTYYADSVKGRFTISRDNAKNTVYLQMNILKPEDTAVYYCAARIRVSGLRRFDYWGQGTQVTVSS | high polyreactivity
5 | QVQLVESGGGLVQAGGSLRLTCDASGSTFYPYAMGWYRQAPWKERELVAAISSRDGRTYYADSVKGRFTISRDNAKNTVYLQMNSLKPEDTAVYYCAATSFNNGHRYDYWGQGTQVTVSS | high polyreactivity
6 | QVQLVESGGGLVQAGGSLRLSCAASGSTFNVYGMGCYRQAPGKERELVAAINRDGITYADSVKGRFTISRDNAKNTVYLQMNSLKPEDTAVYYCAAGYSPYKGSAGYYWGQGTQVTVSS | low polyreactivity
7 | QVQLVESGGGLVQAGGSLRLSCAASGIIFYLYAMGWYRQAPGKERELVAAITLSGSTTYYADSVKGGFTISRDNAKNTVYLQMNSLKPEDTAVYYCNADTPVRSDYWGQGTQVTVSS | low polyreactivity
8 | QVQLVESGGGLVHAGGSLRLSCAASGRTFNRYAMGWYRQAPGKERELVAAISGGGSSTSYADSVKGRFTISRDNAKNTVYLQMNSLKPEDTAVYYCAAKYGGLRYYNMYYWGQGTQVTVSS | low polyreactivity
9 | QVQLVESGGGLVQAGGSLRLSCAASGSIFASNAMGWYRQAPGKDTELVAAITYSGGSTYYADSVKGRFTISRDNAKKTVDLQMNSLKPEDTAVYYCAADVSVPQRYDYWGQGTQVTVSS | low polyreactivity
10 | QVQIVESGGGLVQAGGSLRLSCAAYGSIFQPYAMGWYRQAPGKERELVAAITNGGSTYYADSVKGRFTISRDNAKNTVYLQMNSLKPEDTGVYYCAADVQSSHEYDYWGKGTQVTVSS | low polyreactivity
11 | QVQLVESGGGLVQAGGSLRLSCAGSGSTFPRYPMGWYRQAPGKERELVAAISYSGGRTYYADSVKGRFTISRDYAKNTVYLQMNSLKAEDTAVYYCKKRWRGAGTSYDYWGQGTQGTVSS | high polyreactivity
12 | QFQLVESGGRLVQAGGSLRLSCAASGFTFNRYAMGSYRQAPGKGREFVAAITRRGGSTYYADSVKGRFTISRDNAKNTVYLQMNSLKPEDTAVYYCNVKPSARGSPLYDYWGQGTQVTVSS | high polyreactivity
13 | QVQLVESGGGLVQAGGSLRLSCAASGSIFGLYAMGWYRQAPGKERELVAAITVSGGSTYYADSVKGRFTISRDNAKNTVYLQMNSLKPEDTAVYYCAARAGWPLYQYYYWGQGTQVTVSS | high polyreactivity
14 | QVQLVESGGGLVQAGGSLRLSCAASGFTFVYYAKGWYRQAPGKERELVATISGNGGRTYYADSVKGRFTISRDNAKNTVYLQMNSLKPEDTAVYYCAALLYIRSVGYDYWGQGTQVTVSS | low polyreactivity
15 | QVQLVESGGGLVQAGGSLRLSCAASGSIFWQYAMGWYRQAPGKERELVAAINWSGDTTYYADSVKGRFTISRDNAKNTVYLQMNSLKPEDTAVYFCAAVGGVSYGGSPKTHAGEDYWGQGTQVTVSS | low polyreactivity
16 | QVQLVESGGGLVQAGGSLRLSCAASGRTFKYYTMGWYRQAPGKERELVAAISASGGSTYYADSVKGRFTISRDNAKNTVYLQMNSLKPEDTAVYYCAKGANRAIHKQPTRSRLDSWGQGTQVTVSS | high polyreactivity
17 | QVQLVESGGGLVQAGGSLRLSCAASGRIFIANTMGWYRQAPGKERELVAAITQRGDSTYYADSVKGRFTISRDNAKNTVYLQMNSLKPEDTAVYYCAARYYLSSYVRYNYWGQGTQVTVSS | high polyreactivity
18 | QVQLVESAVGLVQAGGSLPLSCDASSSTIYPYAMGWYRQAPGKERELVAAISSGGSTSYADSVKGRFTISRDNAKNTVYLQMNSLKPEDTAVYYCNADPLQCKLWTYFFGFPGYYWGQGTQVTVSS | low polyreactivity
19 | QVQLVESGGGLVQAGGSLRLSCAASGLTFVFYAMGWYRQAPGKETELVAAISSSGGSTNYADSVKGRFTISRDNEKNTVYLQMKSLKPEDTAVYYCAATPYYSQYDYWGQGTQVTVSS | high polyreactivity
20 | QVQLVESGVGLVQAGGSLSLSCAASGSTFPKYAMGWYRQAPGKERELVAAISGSGGSTYYADSVKGRFTISRDNAKNTVYLQMNSLKREDTAVYYCAVAWNVRGVGARQRYIYGYWGQGTQVTVSS | high polyreactivity
21 | QVQLVESGGGLVQAGGSLRLSCAASGFIFRYYAMGWYRQAPGKEREFVAAISSSGGSTYYADSVKGRFTISRDNAKNTVYLQMNSLKPEDTAVYYCAARSRQDNFYRSYNSWGQGTQVTVSS | high polyreactivity
22 | QVQLVESGGGLVQAGGSLRLSCDASGRTFGYYAMGWYRHAPGQERELVAGIRSSGGSTYYADSVKGRFTISRDNAKNTVYLQMNSLKPEDTAVYYCAARLRSYHYRYGYDYWGQGTQVTVSS | high polyreactivity

Row | Sequence | polyreactivity (PSR sort gate)
23 | QVQLVESGGCLVQAGGSLRLSCAASGRTFYTYAMGWYRQAPGQERELVAAITYRGGNTYYADSVKGRFTISRDNAKNTVYLQMNSLKREDTAVYYCAATYKRRSGQSFDYWGQGTQVTVSS | high polyreactivity
24 | QVQLVESGGGLLQAGGSLRLSCAASGFIFRTYAMGWYRQAPGKERELVARISWSGGSTYYADSVKGRFTISRDNAKNTVYLQMNSLITEDTAVYYCARLGTLYESIEYDYWGQGTQVTVSS | low polyreactivity
25 | QVQLVESGGGLVQAGGSLRLSCAASGSTFRGYAMGWYRQAPGKERELVASISWSGGSTYYADSVKGRFTISRDNAKNTVYLQMNSLKPEDTAVYYCAARKRWRNIRMDYWGQGTQVTVSS | high polyreactivity
26 | QVQLVESGGGLVQAGGSLRLSCAASGFTFGSNAMGWYRQAPGKEREFVAAISRSGSRTYYADSVKGRFTISRDNAKNTVYLQMNSLKPEDTAVYYCNARSGEISQRHMDYWGQGTQVTVSS | high polyreactivity
27 | QVQLVESGGGLVQAGGILRLSCAASGLTFYYYSMGWYRQAPGKERELVAAINSSGGITFYADSVKGRFTISRDNAKNTVYLQMNSLKPEDTAVYYCAAGGRSKRYGYWGQGTQVTVSS | low polyreactivity
28 | QVQLVEAGGGLVQAGGSLRLSCAASGITFGDNAMGCYRQAPGKERELVAAITLSDVDTYADSVKGRFTISRDNAKNTVYLQMNSMKPEDTAVYYCAADYDFFSLYLYDYCGQGTQVTVSS | low polyreactivity
29 | PVQLVESGGGLVQAGGSLRLSCAASGSIFTAYDMGWYRQAPGKERELVAAINVSAGTTYYADSVKGRFTISRDNAKKTVYLQMISLIPEDTAVYYCAARDISLNAVGLPKEYNRDYWGQGTQVTVSS | low polyreactivity
30 | QVQLVESGGGLVQAGGSLRLSCAASGSIFLASAMGWYRQAPGKERELVAAITAGTGSTYYADSVKGRFTISRDNAKNTVYLQMNSLKPEDTAVYYCAKAVSLFRGPFSSFDYWGQGTQVTVSS | low polyreactivity
31 | QVQLVESGGGLVQAGGSLRLSCAASGSIFGTNTMGWYRQAPGKERELVAAIRLSDSSTYYADSVKGRFTISRDNAKNSFYLQMNSLKPVDTAVYYCAVDYRAYHYYRYDYWGQGTQVTVSS | low polyreactivity
32 | QVQLVESGGGLVQAGGSLRLSCAASGIIFHFNAMGWYRQARGKERELVASITRGGNTNYADSVKGRFTISRDNAKNTVYLQMNSLKPEDTAVYYCAAKYRSRYDWGQGTQVTVSS | low polyreactivity
33 | QVQLVESGGGLVQAGGSLRLSCAASGRIFLKYTMGWYRQAPGKERELVAAISRGGSTYYADSVKGRFTISRDNAKNTVYLQMNSLKPEDTAVYYCAATSYRRTGYNYWGQGTQVTVSS | high polyreactivity
34 | QVQLVESGGGLVQAGGSLRLSCAASGSIFDRYAMGWYRQAPGKERELVAAITGSGGSTYYADSVKGRFTISRDNAKNTVYLQMNSLKPEDTAVYYCNARARGAYVRYGYWGQGTQVTVSS | high polyreactivity
35 | QVQLVESGGGLFQAGGSLRLSCAASGRTFGYNVMGWYRQATGKERELVAGITSSGSTNYADSVKGRFTISRDNVKNTFYLQMNSLKPEETAVYYCAAGDRRWGFQVGYWGQGTQVTVSS | high polyreactivity
36 | QVQLVESGGGLVQAGGSLRLSCAASGSIFDVYAMGWYRQAPGKERELVAGISRSGGSTYYADSVKGRFTISRDNAKNTVYLQMNSLKPEDTAVYYCAARYTYYRGRYDYWGQGTQVTVSS | low polyreactivity
37 | QVQLVESGGGFVQAGGSLRLSCAASGSTFHGYAMGWYRQEPGKERELVAAITSSGGSTYYADSVKGRFTISRDNAKNTVYLLMNILNPEVTEVYYCAARRYGWGRAQSSASYDHWGQGTQVTVSS | high polyreactivity
38 | QVQLVESGGGLVQAGGSLRLSCAAYGRTFRLNAMGWYRQAPGKERELVAGIRVRAGTTYYADSVKGRFTISRDNAKNTVYLQMNSLKPEDTAVYYCAAESYSRSRKYDYWGQGTQVTVSS | high polyreactivity
39 | QVQLVESGGGLVQAGGSLRLSCAASGGIFYDYAMGWYRQAPGKERELVAAITRSGDSTYYADSVKGRFTISRDNPKNTVYLQMNSLKPEDTAVYYCAADIWSSDYEEFYYWGQGTQVTVSS | low polyreactivity
40 | QVQLVESGGGLVQAGGSLRLSCAASGRTFRHNAMGWYRQAPGKERELVAANSSGGSTYYADSVKGRFTISRDNAKNTVYLQLYSLKREDTAVYYCAASRYRPYGGTTTDYWGQGTQLTVSS | high polyreactivity
41 | QVQLVESGGGLVQAGGSLRLSCAASGITFYGYDKGWYRQAPGKERELGAAITSDGITNYADSVKGRFTISRDNAKNTVYLQMNSLKPEDTAVYYCAADLSFYRRYEWYYYWGQGTQVTVSS | low polyreactivity
42 | QVQLVESGGGLVHAGGSLRLSCAASGFIYDAYANGWYRQSPGKERELVAAIDSGGSTDYADSVKGRFTISRDNAKNTVYLQMNSLKPEDTAVYYCNAERAYLWWYNFDYWGQGTQVTVSS | low polyreactivity
43 | QVQLVESGGGLVQAGGSLRLSCAASGSIFGYYAMGWYRQAPGKERELVAAISTSGGRTYYADSVKGRFTISRDNAKNTVYFQMNSLKPEDTAVYYCAARVYSTSVVAYYYWGQGTQVTVSS | high polyreactivity
